In patent US20230134571A1 (INTERNATIONAL AIDS VACCINE INITIATIVE, published 2023):

How the values were obtained:
Test in all cases: cell-based or functional assay
HIV Env, isolate 2969249 = HIV Env, isolate 2969249 (HIV)
HIV Env, isolate 3514597 = HIV Env, isolate 3514597 (HIV)
[1] = target: HIV Env, isolate 19252094_A5_G2 (HIV)
[2] = target: HIV Env, isolate 19707346_E8_C6 (HIV)
[3] = target: HIV Env, isolate 20104663_E11_D2 (HIV)
[4] = target: HIV Env, isolate 20198102_E9_G1 (HIV)
[5] = target: HIV Env, isolate 21492713_B11_E3 (HIV)
[6] = target: HIV Env, isolate 21502011_F12_E2 (HIV)
[7] = target: HIV Env, isolate 21561324_D3_B5 (HIV)
[8] = target: HIV Env, isolate 19314479_A2_5 (HIV)
[9] = target: HIV Env, isolate 541-F1_A7_2 (HIV)
[10] = target: HIV Env, isolate CAP69.1.12_TA7.1 (HIV)
[11] = target: HIV Env, isolate So405_T24_5 (HIV)
[12] = target: HIV Env, isolate CT072_56_7 (HIV)
[13] = target: HIV Env, isolate CT140_140_B6 (HIV)
[14] = target: HIV Env, isolate Ko459_T68_4 (HIV)
[15] = target: HIV Env, isolate 3603_C11.13 (HIV)
[16] = target: HIV Env, isolate CAP304.2.00_F6.6 (HIV)
[17] = target: HIV Env, isolate CAP308.2.00_E11.35 (HIV)
[18] = target: HIV Env, isolate CAP323.2.00_B6.45 (HIV)
[19] = target: HIV Env, isolate 20358510.01 (HIV)
[20] = target: HIV Env, isolate 1170887.08 (HIV)
[21] = target: HIV Env, isolate Me178_G6.16 (HIV)
[22] = target: HIV Env, isolate CT565_C7.48 (HIV)
[23] = target: HIV Env, isolate CAP45.2.00.G3 (HIV)
[24] = target: HIV Env, isolate ZM197M.PB7 (HIV)
[25] = target: HIV Env, isolate ZM233M.PB6 (HIV)
[26] = target: HIV Env, isolate 0984.v2.c2 (HIV)
[27] = target: HIV Env, isolate 6040.v4.c15 (HIV)
[28] = target: HIV Env, isolate 6980.v0.c31 (HIV)
[29] = target: HIV Env, isolate Ce703010131_1E2 (HIV)
[30] = target: HIV Env, isolate Ce2052_G10 (HIV)
[31] = target: HIV Env, isolate Ce704810053_2B7 (HIV)
[32] = target: HIV Env, isolate CeCAP210_TA5 (HIV)
[33] = target: HIV Env, isolate CeCAP177_1A3 (HIV)
[34] = target: HIV Env, isolate 7060101641A7(Rev-) (HIV)

B1: ePGDM9 (antibody, V domains shown)
VH: QAQLVQSGPEVRKPGTSVKVSCKNPGNTLTTYDLHWVRQVPGQGLQWMGWISHEGDKKVIVERFKAKVTIDWDRSTNTAYLQLSGLTSEDTAVYYCAKGSKHRLRDYALYDEDGALNWAVDVDYLANLEFWGQGTAVTVSS
VL: DIVLTQSPLSLSVTPGESASISCKSSQSLIHGDRNNYLAWYVQKPGRSPQLLIDLASERASGVPDRFSGSGSRKDFTLKISRVETEDVGTYYCMQGRESPWTFGQGTKVDIK
How did the “IC50” value (HIV Env, isolate 2969249) turn out when B1 was run?
Its value is > 50000 ng/mL.

And the “IC80” value (HIV Env, isolate 2969249)?
Its value is > 50000 ng/mL.

And the “IC50” value (HIV Env, isolate 3514597)?
Its value is 3 ng/mL.

And the “IC80” value (HIV Env, isolate 3514597)?
The value was 11 ng/mL.

And the “IC50” value [1]?
The value was 1 ng/mL.

And the “IC80” value [1]?
Its value is 3 ng/mL.

And the “IC50” value [2]?
Its value is 5 ng/mL.

What about the “IC80” value [2] of the same binder?
The value was 14 ng/mL.

And the “IC50” value [3]?
Its value is < 0.6 ng/mL.

What about the “IC80” value [3] of the same binder?
Its value is 1 ng/mL.

What about the “IC50” value [4] of the same binder?
Its value is 7 ng/mL.

What about the “IC80” value [4] of the same binder?
The value was 21 ng/mL.

What about the “IC50” value [5] of the same binder?
Its value is > 50000 ng/mL.

And the “IC80” value [5]?
Its value is > 50000 ng/mL.

What about the “IC50” value [6] of the same binder?
Its value is > 50000 ng/mL.

What about the “IC80” value [6] of the same binder?
Its value is > 50000 ng/mL.

And the “IC50” value [7]?
Its value is 4 ng/mL.

And the “IC80” value [7]?
Its value is 38 ng/mL.

And the “IC50” value [8]?
The value was < 0.6 ng/mL.

What about the “IC80” value [8] of the same binder?
Its value is 1 ng/mL.

And the “IC50” value [9]?
The value was 5 ng/mL.

And the “IC80” value [9]?
Its value is 20 ng/mL.

What about the “IC50” value [10] of the same binder?
The value was 10 ng/mL.

And the “IC80” value [10]?
Its value is 39 ng/mL.

What about the “IC50” value [11] of the same binder?
Its value is 14300 ng/mL.

And the “IC80” value [11]?
The value was > 50000 ng/mL.

And the “IC50” value [12]?
Its value is 2 ng/mL.

And the “IC80” value [12]?
Its value is 1230 ng/mL.

What about the “IC50” value [13] of the same binder?
The value was 248 ng/mL.

What about the “IC80” value [13] of the same binder?
The value was 1830 ng/mL.

What about the “IC50” value [14] of the same binder?
The value was 3 ng/mL.

And the “IC80” value [14]?
Its value is 126 ng/mL.

And the “IC50” value [15]?
Its value is 654 ng/mL.

What about the “IC80” value [15] of the same binder?
The value was 2170 ng/mL.

And the “IC50” value [16]?
The value was 2 ng/mL.

And the “IC80” value [16]?
Its value is 13 ng/mL.

And the “IC50” value [17]?
The value was 1 ng/mL.

What about the “IC80” value [17] of the same binder?
The value was 4 ng/mL.

And the “IC50” value [18]?
The value was 4 ng/mL.

What about the “IC80” value [18] of the same binder?
The value was 16 ng/mL.

And the “IC50” value [19]?
Its value is 4 ng/mL.

And the “IC80” value [19]?
Its value is 17 ng/mL.

What about the “IC50” value [20] of the same binder?
The value was 8 ng/mL.

What about the “IC80” value [20] of the same binder?
The value was 56 ng/mL.

What about the “IC50” value [21] of the same binder?
Its value is 6 ng/mL.

And the “IC80” value [21]?
Its value is 31 ng/mL.

What about the “IC50” value [22] of the same binder?
Its value is < 0.6 ng/mL.

And the “IC80” value [22]?
Its value is 86 ng/mL.

What about the “IC50” value [23] of the same binder?
The value was < 0.6 ng/mL.

What about the “IC80” value [23] of the same binder?
Its value is < 0.6 ng/mL.

What about the “IC50” value [24] of the same binder?
The value was 17 ng/mL.

And the “IC80” value [24]?
Its value is 50 ng/mL.

And the “IC50” value [25]?
The value was < 0.6 ng/mL.

And the “IC80” value [25]?
Its value is 1 ng/mL.

And the “IC50” value [26]?
The value was 2810 ng/mL.

And the “IC80” value [26]?
Its value is > 50000 ng/mL.

And the “IC50” value [27]?
Its value is < 0.6 ng/mL.

And the “IC80” value [27]?
The value was 3 ng/mL.

And the “IC50” value [28]?
Its value is < 0.6 ng/mL.

What about the “IC80” value [28] of the same binder?
The value was 6 ng/mL.

And the “IC50” value [29]?
Its value is < 0.6 ng/mL.

And the “IC80” value [29]?
The value was 4 ng/mL.

And the “IC50” value [30]?
The value was 1 ng/mL.

And the “IC80” value [30]?
Its value is 5 ng/mL.

What about the “IC50” value [31] of the same binder?
The value was 3 ng/mL.

And the “IC80” value [31]?
The value was 7 ng/mL.

What about the “IC50” value [32] of the same binder?
Its value is 9 ng/mL.

And the “IC80” value [32]?
Its value is 73 ng/mL.

And the “IC50” value [33]?
The value was 153 ng/mL.

What about the “IC80” value [33] of the same binder?
The value was 1060 ng/mL.

And the “IC50” value [34]?
Its value is 2 ng/mL.

And the “IC80” value [34]?
Its value is 13 ng/mL.
